# Measurements as given in the supplement of paper PMC6755084.
# Experiments:
# [1] = tested on: F1*sub RNA substrate (template-directed ligation); experiment: fraction ligated after 30 min (ligated reads / total reads); higher = more ligase activity; conditions: 42 °C
# Experimental: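 Chip-synthesised pool of F1* ligase ribozyme variants (all single and double substitutions, single, double and triple deletions in the catalytic core and GAA bulge, plus designed variants) was transcribed with T7 and reacted as a pool with excess substrate F1*sub for 30 min at 42 C in 50 mM EPPS pH 8.5, 25 mM MgCl2. Ligated and unligated bands were separated by PAGE, barcoded by RT and deep sequenced; fraction ligated = ligated reads / total reads per variant, relative activity = FL / FL of wild type (0.826). Sequences are the DNA template of the ribozyme.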
# [2] = tested on: F1*sub RNA substrate (template-directed ligation); experiment: fraction ligated after 30 min (ligated reads / total reads); higher = more ligase activity; sequences stand for … in GAGACCGCAACTGAAAAGTTGT…AGTTCTGCACGTAGAAGCAAAAGGC; conditions: 42 °C
# Procedure, shortened: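 Templates from an oligo pool were PCR-amplified, transcribed with T7 and gel-purified to give the ribozyme variants. Ligated and unligated products were separated on gel, reverse transcribed using barcoded primers, and read on a MiSeq. A quality filter of ≥20 was applied to core bases. Fraction ligated was taken as ligated reads as a share of all reads per variant.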
Sequence,fraction ligated [1],fraction ligated [2]
GAGACCGCAACTGAAAAGTTGTATCACTTGTCGTAAGACACTTTGGATGGGTTGGTTCTGCACGTAGAAGCAAAAGGC [3d276],0.00404,–
GAGACCGCAACTGAAAAGTTGTTACACTTGTCGTAAGACACTTTGGATGGGTTGGTTCTGCACGTAGAAGCAAAAGGC [3d737],0.00325,–
GAGACCGCAACTGAAAAGTTGTTATACTTGTCGTAAGACACTTTGGATGGGTTGGTTCTGCACGTAGAAGCAAAAGGC [3d948],0,–
GAGACCGCAACTGAAAAGTTGTTATCACTGTCGTAAGACACTTTGGATGGGTTGGTTCTGCACGTAGAAGCAAAAGGC [3d1463],0.0111,–
GAGACCGCAACTGAAAAGTTGTTATCACTTGCGTAAGACACTTTGGATGGGTTGGTTCTGCACGTAGAAGCAAAAGGC [3d1704],0.0839,–
GAGACCGCAACTGAAAAGTTGTTATCACTTGTCGAAGACACTTTGGATGGGTTGGTTCTGCACGTAGAAGCAAAAGGC [3d1980],0.102,–
GAGACCGCAACTGAAAAGTTGTTATCACTTGTCGTAAACACTTTGGATGGGTTGGTTCTGCACGTAGAAGCAAAAGGC [3d2104],0.0572,–
GAGACCGCAACTGAAAAGTTGTTATCACTTGTCGTAAGAACTTTGGATGGGTTGGTTCTGCACGTAGAAGCAAAAGGC [3d2182],0.0451,–
GAGACCGCAACTGAAAAGTTGTTATCACTTGTCGTAAGACACTTGGATGGGTTGGTTCTGCACGTAGAAGCAAAAGGC [3d2254],0.00633,–
GAGACCGCAACTGAAAAGTTGTTATCACTTGTCGTAAGACACTTTGATGGGTTGGTTCTGCACGTAGAAGCAAAAGGC [3d2270],0.00433,–
GAGACCGCAACTGAAAAGTTGTTATCACTTGTCGTAAGACACTTTGGAGGGTTGGTTCTGCACGTAGAAGCAAAAGGC [3d2280],0.0051,–
GAGACCGCAACTGAAAAGTTGTTATCACTTGTCGTAAGACACTTTGGATGGGTTCGTTCTGCACGTAGAAGCAAAAGGC [s80],0.0169,–
GAGACCGCAACTGAAAAGTTGTTATCACTTGTCGTAAGACACTTTGGATGGGTTGGTTCTGCACGTAGAAGCAAAAGGC [2d299],0.02,–
GAGACCGCAACTGAAAAGTTGTTATCACTTGTCGTAAGACACTTTGGATGGGTTGTTCTGCACGTAGAAGCAAAAGGC [3d2283],0.021,–
TTCACTTTCGAAGACACTTTGGATGGGTTGA [3d357],–,0.145
TTCACTTTCGTAAACACTTTGGATGGGTTGA [3d359],–,0.0493
TTCACTTTCGTAAGAACTTTGGATGGGTTGA [3d361],–,0.832
TTCACTTTCGTAAGACACTTGGATGGGTTGA [3d364],–,0.13
TTCACTTTCGTAAGACACTTTGATGGGTTGA [3d365],–,0.0352
TTCACTTTCGTAAGACACTTTGGAGGGTTGA [3d367],–,0.0281
TTCACTTTCGTAAGACACTTTGGATGGGTTA [3d369],–,0.0133
TTCACTTTCGTAAGACACTTTGGATGGGTTG [3d370],–,0.184
TTCACTTTCGTAAGACACTTTGGATGGGTTGA [2d29],–,0.501
TTCACTTTCGTAAGACACTTTGGATGGTTGA [3d368],–,0.0816

Sequence,fraction ligated [1],fraction ligated [2]
TTCACTTTCGTAAGACACTTTGGTGGGTTGA [3d366],–,0.00787
TTCACTTTCGTAAGACATTTGGATGGGTTGA [3d363],–,0.775
TTCACTTTCGTAAGACCTTTGGATGGGTTGA [3d362],–,0.437
TTCACTTTCGTAAGCACTTTGGATGGGTTGA [3d360],–,0.466
TTCACTTTCGTAGACACTTTGGATGGGTTGA [3d358],–,0.142
TTCACTTTCTAAGACACTTTGGATGGGTTGA [3d356],–,0.36
TTCACTTTGTAAGACACTTTGGATGGGTTGA [3d355],–,0.747
TTCATGTCGTAAGACACTTTGGATGGGTTGA [3d317],–,0.468
TTCATTGCGTAAGACACTTTGGATGGGTTGA [3d319],–,0.11
TTCATTGTCGAAGACACTTTGGATGGGTTGA [3d322],–,0.197
TTCATTGTCGTAAACACTTTGGATGGGTTGA [3d324],–,0.068
TTCATTGTCGTAAGAACTTTGGATGGGTTGA [3d326],–,0.149
TTCATTGTCGTAAGACACTTGGATGGGTTGA [3d329],–,0.453
TTCATTGTCGTAAGACACTTTGATGGGTTGA [3d330],–,0.505
TTCATTGTCGTAAGACACTTTGGAGGGTTGA [3d332],–,0.175
TTCATTGTCGTAAGACACTTTGGATGGGTTA [3d334],–,0.0829
TTCATTGTCGTAAGACACTTTGGATGGGTTG [3d335],–,0.285
TTCATTGTCGTAAGACACTTTGGATGGGTTGA [2d27],–,0.509
TTCATTGTCGTAAGACACTTTGGATGGTTGA [3d333],–,0.421
TTCATTGTCGTAAGACACTTTGGTGGGTTGA [3d331],–,0.106
TTCATTGTCGTAAGACATTTGGATGGGTTGA [3d328],–,0.5
TTCATTGTCGTAAGACCTTTGGATGGGTTGA [3d327],–,0.529
TTCATTGTCGTAAGCACTTTGGATGGGTTGA [3d325],–,0.176
TTCATTGTCGTAGACACTTTGGATGGGTTGA [3d323],–,0.271

Sequence,fraction ligated [1],fraction ligated [2]
TTCATTGTCTAAGACACTTTGGATGGGTTGA [3d321],–,0.203
TTCATTGTGTAAGACACTTTGGATGGGTTGA [3d320],–,0.137
TTCATTTCGTAAGACACTTTGGATGGGTTGA [3d318],–,0.104
TTCCTGTCGTAAGACACTTTGGATGGGTTGA [3d298],–,0.746
TTCCTTGCGTAAGACACTTTGGATGGGTTGA [3d300],–,0.779
TTCCTTGTCGAAGACACTTTGGATGGGTTGA [3d303],–,0.796
TTCCTTGTCGTAAACACTTTGGATGGGTTGA [3d305],–,0.786
TTCCTTGTCGTAAGAACTTTGGATGGGTTGA [3d307],–,0.765
TTCCTTGTCGTAAGACACTTGGATGGGTTGA [3d310],–,0.776
TTCCTTGTCGTAAGACACTTTGATGGGTTGA [3d311],–,0.595
TTCCTTGTCGTAAGACACTTTGGAGGGTTGA [3d313],–,0.186
TTCCTTGTCGTAAGACACTTTGGATGGGTTA [3d315],–,0.229
TTCCTTGTCGTAAGACACTTTGGATGGGTTG [3d316],–,0.731
TTCCTTGTCGTAAGACACTTTGGATGGGTTGA [2d26],–,0.778
TTCCTTGTCGTAAGACACTTTGGATGGTTGA [3d314],–,0.175
TTCCTTGTCGTAAGACACTTTGGTGGGTTGA [3d312],–,0.204
TTCCTTGTCGTAAGACATTTGGATGGGTTGA [3d309],–,0.756
TTCCTTGTCGTAAGACCTTTGGATGGGTTGA [3d308],–,0.737
TTCCTTGTCGTAAGCACTTTGGATGGGTTGA [3d306],–,0.772
TTCCTTGTCGTAGACACTTTGGATGGGTTGA [3d304],–,0.77
TTCCTTGTCTAAGACACTTTGGATGGGTTGA [3d302],–,0.78
TTCCTTGTGTAAGACACTTTGGATGGGTTGA [3d301],–,0.782
TTCCTTTCGTAAGACACTTTGGATGGGTTGA [3d299],–,0.753
TTCTTGTCGTAAGACACTTTGGATGGGTTGA [3d277],–,0.765
